# Tested on: Escherichia coli TOP10
# Assay: shrunken log2 fold change of peptide-encoding DNA abundance (4.5 h post-induction vs induction); higher = less antimicrobial activity (less host growth inhibition)
# Conditions: time post-induction: 4.5 h; library: site-saturation at positions 5, 18, 19, 20
# 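Note: peptides expressed intracellularly from a pBAD plasmid library in pooled LB shake-flask culture, induced with 0.3% L-arabinose, DNA abundance read by NGS, three biological replicates, DESeq2 with apeglm shrinkage.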
row,Sequence,shrunken log2 fold change
1,RRIRRRPPRLPRPRPRPADIPRP,-0.0589
2,RRIRRRPPRLPRPRPRPQLLPRP,0.537
3,RRIRARPPRLPRPRPRPSWLPRP,0.0254
4,RRIRMRPPRLPRPRPRPYEKPRP,-0.111
5,RRIRQRPPRLPRPRPRPSTYPRP,-0.884
6,RRIRRRPPRLPRPRPRPLLVPRP,0.329
7,RRIRYRPPRLPRPRPRPMVRPRP,-0.0135
8,RRIRIRPPRLPRPRPRPEDFPRP,0.00408
9,RRIRARPPRLPRPRPRPNGPPRP,0.149
10,RRIRCRPPRLPRPRPRPIEAPRP,-0.108
11,RRIRIRPPRLPRPRPRPSVNPRP,-0.225
12,RRIRGRPPRLPRPRPRPDVQPRP,1.69
13,RRIRLRPPRLPRPRPRPSEVPRP,-0.396
14,RRIRRRPPRLPRPRPRPASSPRP,-0.0219
15,RRIRERPPRLPRPRPRPQSRPRP,0.00145
16,RRIRVRPPRLPRPRPRPRAIPRP,1.97
17,RRIRCRPPRLPRPRPRPVQHPRP,-0.0893
18,RRIRYRPPRLPRPRPRPENAPRP,0.0607
19,RRIRYRPPRLPRPRPRPPYIPRP,-0.496
20,RRIRMRPPRLPRPRPRPGTYPRP,-0.163
21,RRIRKRPPRLPRPRPRPGMCPRP,0.863
22,RRIRQRPPRLPRPRPRPTCHPRP,-0.552
23,RRIRRRPPRLPRPRPRPTSEPRP,0.372
24,RRIRCRPPRLPRPRPRPHDFPRP,-0.0215
25,RRIRMRPPRLPRPRPRPFNVPRP,-0.0076

row,Sequence,shrunken log2 fold change
1,RRIRFRPPRLPRPRPRPKDYPRP,-0.788
2,RRIRQRPPRLPRPRPRPIPLPRP,-0.182
3,RRIRNRPPRLPRPRPRPREMPRP,0.0274
4,RRIRIRPPRLPRPRPRPLVCPRP,-0.346
5,RRIRMRPPRLPRPRPRPQNDPRP,-0.179
6,RRIRIRPPRLPRPRPRPHPMPRP,-0.133
7,RRIRHRPPRLPRPRPRPSQKPRP,-0.0338
8,RRIRNRPPRLPRPRPRPEFMPRP,0.0662
9,RRIRIRPPRLPRPRPRPSTGPRP,-0.505
10,RRIRFRPPRLPRPRPRPTDPPRP,-0.0408
11,RRIRVRPPRLPRPRPRPELMPRP,-0.0669
12,RRIRERPPRLPRPRPRPENEPRP,-0.0522
13,RRIRYRPPRLPRPRPRPGIQPRP,-0.0445
14,RRIRGRPPRLPRPRPRPAVNPRP,0.402
15,RRIRSRPPRLPRPRPRPNFSPRP,-0.112
16,RRIRIRPPRLPRPRPRPDIWPRP,-0.324
17,RRIRERPPRLPRPRPRPNNSPRP,-0.693
18,RRIRIRPPRLPRPRPRPIDAPRP,-0.215
19,RRIRFRPPRLPRPRPRPNSQPRP,-0.496
20,RRIRRRPPRLPRPRPRPHYSPRP,-0.538
21,RRIRDRPPRLPRPRPRPSMWPRP,-0.0184
22,RRIRQRPPRLPRPRPRPNTPPRP,-0.0687
23,RRIRLRPPRLPRPRPRPVDMPRP,-0.375
24,RRIRYRPPRLPRPRPRPWMFPRP,-0.273
25,RRIRVRPPRLPRPRPRPLEHPRP,-0.22

row,Sequence,shrunken log2 fold change
1,RRIRMRPPRLPRPRPRPEDVPRP,-0.0102
2,RRIRNRPPRLPRPRPRPNVNPRP,-0.795
3,RRIRERPPRLPRPRPRPACPPRP,-0.0623
4,RRIRCRPPRLPRPRPRPDAYPRP,-0.177
5,RRIRIRPPRLPRPRPRPLDFPRP,0.0619
6,RRIRFRPPRLPRPRPRPYMSPRP,-0.401
7,RRIRDRPPRLPRPRPRPINVPRP,0.0039
8,RRIRNRPPRLPRPRPRPGPVPRP,0.127
9,RRIRKRPPRLPRPRPRPDPEPRP,-0.0797
10,RRIRCRPPRLPRPRPRPVWQPRP,-0.063
11,RRIRARPPRLPRPRPRPISDPRP,0.266
12,RRIRHRPPRLPRPRPRPDQAPRP,0.106
13,RRIRWRPPRLPRPRPRPWNNPRP,-0.77
14,RRIRARPPRLPRPRPRPYVEPRP,-0.162
15,RRIRVRPPRLPRPRPRPCSEPRP,-0.128
16,RRIRDRPPRLPRPRPRPMLGPRP,0.015
17,RRIRLRPPRLPRPRPRPCEVPRP,0.0632
18,RRIRPRPPRLPRPRPRPGMMPRP,-0.111
19,RRIRSRPPRLPRPRPRPFERPRP,-0.00192
20,RRIRMRPPRLPRPRPRPHTAPRP,-0.000764
21,RRIRFRPPRLPRPRPRPSTRPRP,-0.013
22,RRIRCRPPRLPRPRPRPTFSPRP,-0.187
23,RRIRVRPPRLPRPRPRPNKIPRP,-0.295
24,RRIRQRPPRLPRPRPRPWGAPRP,0.351
25,RRIRDRPPRLPRPRPRPAAYPRP,0.174

row,Sequence,shrunken log2 fold change
1,RRIRERPPRLPRPRPRPHVMPRP,-0.957
2,RRIRERPPRLPRPRPRPQGYPRP,0.0039
3,RRIRYRPPRLPRPRPRPYMEPRP,-0.0102
4,RRIRQRPPRLPRPRPRPCQTPRP,0.00707
5,RRIRARPPRLPRPRPRPEQTPRP,1.18
6,RRIRSRPPRLPRPRPRPHMYPRP,-0.37
7,RRIRHRPPRLPRPRPRPRDRPRP,0.0898
8,RRIRKRPPRLPRPRPRPEKQPRP,-0.0582
9,RRIRLRPPRLPRPRPRPQAAPRP,0.0357
10,RRIRNRPPRLPRPRPRPYLRPRP,-0.0191
11,RRIRLRPPRLPRPRPRPPKRPRP,0.492
12,RRIRMRPPRLPRPRPRPAMIPRP,-0.0626
13,RRIRVRPPRLPRPRPRPFTQPRP,0.0152
14,RRIRRRPPRLPRPRPRPEESPRP,1.5
15,RRIRMRPPRLPRPRPRPSANPRP,2.44
16,RRIRNRPPRLPRPRPRPDAMPRP,-0.0496
17,RRIRSRPPRLPRPRPRPDLEPRP,-0.0903
18,RRIRVRPPRLPRPRPRPNVNPRP,-0.494
19,RRIRIRPPRLPRPRPRPGMDPRP,-0.295
20,RRIRVRPPRLPRPRPRPVWTPRP,0.155
21,RRIRFRPPRLPRPRPRPYMYPRP,-0.635
22,RRIRARPPRLPRPRPRPGKQPRP,0.292
23,RRIRQRPPRLPRPRPRPNHYPRP,-0.36
24,RRIRDRPPRLPRPRPRPRQMPRP,0.019
25,RRIRHRPPRLPRPRPRPKISPRP,-0.395

row,Sequence,shrunken log2 fold change
1,RRIRKRPPRLPRPRPRPLRCPRP,0.35
2,RRIRGRPPRLPRPRPRPPGCPRP,0.895
3,RRIRPRPPRLPRPRPRPRMMPRP,0.323
4,RRIRKRPPRLPRPRPRPPKEPRP,0.944
5,RRIRLRPPRLPRPRPRPWGFPRP,-0.0515
6,RRIRFRPPRLPRPRPRPLHSPRP,0.12
7,RRIRARPPRLPRPRPRPFWCPRP,0.0247
8,RRIRYRPPRLPRPRPRPNMGPRP,-0.00101
9,RRIRMRPPRLPRPRPRPRGRPRP,1.2
10,RRIRNRPPRLPRPRPRPRDYPRP,-0.0159
11,RRIRKRPPRLPRPRPRPRVYPRP,0.307
12,RRIRERPPRLPRPRPRPAYDPRP,-0.394
13,RRIRRRPPRLPRPRPRPWQFPRP,-0.0199
14,RRIRPRPPRLPRPRPRPTTQPRP,0.0237
15,RRIRFRPPRLPRPRPRPGPDPRP,0.325
16,RRIRLRPPRLPRPRPRPGVCPRP,0.195
17,RRIRGRPPRLPRPRPRPMVLPRP,-0.0349
18,RRIRCRPPRLPRPRPRPVSGPRP,0.357
19,RRIRARPPRLPRPRPRPYSYPRP,-0.292
20,RRIRKRPPRLPRPRPRPGHWPRP,0.2
21,RRIRMRPPRLPRPRPRPYMWPRP,-0.38
22,RRIRSRPPRLPRPRPRPVKPPRP,0.132
23,RRIRARPPRLPRPRPRPPAWPRP,0.621
24,RRIRWRPPRLPRPRPRPTHTPRP,-0.252
25,RRIRNRPPRLPRPRPRPQDSPRP,-0.238

row,Sequence,shrunken log2 fold change
1,RRIRTRPPRLPRPRPRPQHPPRP,0.0586
2,RRIRKRPPRLPRPRPRPINPPRP,0.0583
3,RRIRARPPRLPRPRPRPFPMPRP,0.335
4,RRIRERPPRLPRPRPRPDKVPRP,-0.121
5,RRIRKRPPRLPRPRPRPTIVPRP,-0.0951
6,RRIRERPPRLPRPRPRPPEWPRP,-0.0429
7,RRIRERPPRLPRPRPRPAVDPRP,0.116
8,RRIRKRPPRLPRPRPRPVSGPRP,0.233
9,RRIRYRPPRLPRPRPRPLMQPRP,-0.283
10,RRIRERPPRLPRPRPRPHHRPRP,-0.145
11,RRIRSRPPRLPRPRPRPCKTPRP,0.0503
12,RRIRARPPRLPRPRPRPQIIPRP,0.0561
13,RRIRGRPPRLPRPRPRPTFFPRP,0.412
14,RRIRRRPPRLPRPRPRPGACPRP,0.475
15,RRIRKRPPRLPRPRPRPFWPPRP,0.537
16,RRIRRRPPRLPRPRPRPPENPRP,0.615
17,RRIRLRPPRLPRPRPRPGHRPRP,-0.114
18,RRIRNRPPRLPRPRPRPWQWPRP,0.144
19,RRIRVRPPRLPRPRPRPWFAPRP,-0.191
20,RRIRDRPPRLPRPRPRPKWPPRP,0.466
21,RRIRPRPPRLPRPRPRPYEIPRP,-0.0187
22,RRIRKRPPRLPRPRPRPTERPRP,0.306
23,RRIRHRPPRLPRPRPRPSSMPRP,-0.474
24,RRIRGRPPRLPRPRPRPDYPPRP,0.121
25,RRIRCRPPRLPRPRPRPFALPRP,-0.33

# — the supplement of paper PMC9112550, “Optimization of the antimicrobial peptide Bac7 by deep mutational scanning” (BMC Biology, 2022)
